Test results reported in paper PMC11335294, “Directed-evolution mutations enhance DNA-binding affinity and protein stability of the adenine base editor ABE8e”.

Legend:
[1] = target: T1, TadA7.10 (Escherichia coli? (laboratory-evolved …, UniProt P68398 1-167, W23R;H36L;P48A;R51L;L84F;A106V;D108N;H123Y;S146C;D147Y;R152P;E155V;I156F;K157N)); assay: SEC; Superdex 200 Increase 10/300 GL, 20 mM HEPES pH7.5, 500 mM KCl; elution position between 44.0 and 29.0 kDa compared with the monomer mass of about 18.7 kDa
[2] = target: TadA8e (E. coli) (UniProt P68398); assay: as above
[3] = target: T1, TadA7.10; assay: MST; 5 mM Mg2+; MST: 20 mM HEPES pH 7.5, 200 mM KCl, 5 mM MgCl2, 1 mM DTT, 0.05% Tween-20; 100 nM DNA; 120 min at room temperature; settings: protein: recombinant; tags: N-terminal non-cleavable His6; chain copies: 2; label: 5' 6-FAM; single-stranded
[4] = target: TadA7.10-3mut (Escherichia coli? (laboratory-evolved …, UniProt P68398 1-167, W23R;H36L;P48A;R51L;L84F;A106V;D108N;T111R;D119N;H123Y;S146C;D147Y;R152P;E155V;I …)); assay: as above; settings: protein: recombinant; tags: N-terminal non-cleavable His6; chain copies: 2; label: 5' 6-FAM; single-stranded

With “TadA7.10 (from UniProt P68398 1-167) (enzyme)” as the molecule, how does the stoichiometry N [1] read?
The stoichiometry N was 2.

“TadA8e (from UniProt P68398 1-167) (enzyme)” was tested. Which stoichiometry N [2] did it give?
The stoichiometry N was 2.

For TTCTCTTCCACTTTCTTTT (ssDNA) [19-nt ssDNA (NTS of 6VPC with five bases mutated at either end)], which Kd [3] is on record?
Its Kd is 106 nM.

What about the Kd [4] of the same molecule?
Its Kd is 38.5 nM.
